Target: human endogenous fatty acid synthase (FASN) (human) (UniProt P49327)
Experiment: cryo-EM structure; purified endogenous FASN at 0.5-1.0 mg/ml in TBS buffer, alone or incubated 30 min with 1 mM orlistat or 3 mM 1,3-DBP; C2 symmetry applied; condensing and modifying wings refined separately

stoichiometry N: 2
Substance: human endogenous fatty acid synthase (FASN), P49327 1-2511
